According to US20030148447A1 (ZymoGenetics, published 2003):
One block for each binder: values may come before it.

Tests used:
[1] = target: factor present in the activated CD3+ selected human T-cell conditioned media; assay: cell-based or functional assay
[2] = target: factor present in the activated monkey spleen conditioned media; assay: cell-based or functional assay

inhibition of conditioned-medium-driven BaF3/Zalpha11 cell growth; soluble receptor concentration giving complete inhibition [1]: 10 µg/mL | titration of soluble receptor; lowest concentration completely inhibiting BaF3/Zalpha11 growth [1]: 20 ng/mL | inhibition of conditioned-medium-driven BaF3/Zalpha11 cell growth; soluble receptor concentration giving complete inhibition [2]: 10 µg/mL | titration of soluble receptor; lowest concentration completely inhibiting BaF3/Zalpha11 growth [2]: 20 ng/mL
B1: zalpha11CFLG soluble receptor (zalpha11 extracellular domain with C-terminal FLAG tag) (receptor)
chain: not shown
modifications: first Trp of the WSXWS motif C-mannosylated in ~35% of molecules (BHK)

inhibition of conditioned-medium-driven BaF3/Zalpha11 cell growth; soluble receptor concentration giving complete inhibition [1]: 10 µg/mL | titration of soluble receptor; lowest concentration completely inhibiting BaF3/Zalpha11 growth [1]: 20 ng/mL | inhibition of conditioned-medium-driven BaF3/Zalpha11 cell growth; soluble receptor concentration giving complete inhibition [2]: 10 µg/mL | titration of soluble receptor; lowest concentration completely inhibiting BaF3/Zalpha11 growth [2]: 20 ng/mL
B2: zalpha11CEE soluble receptor (zalpha11 extracellular domain with C-terminal Glu-Glu tag) (receptor)
chain: not shown
modifications: first Trp of the WSXWS motif C-mannosylated in ~46% of molecules (BHK)
